Measurements reported in patent US5985836A, “Alpha-1 proteinase inhibitor binding peptides” (Bayer Corporation, priority 1998, dated 1999).

What was measured:
A1PI [1] = target: T1, A1PI (Homo sapiens, UniProt P01009); experiment: Purification of A1PI from Effluent II+III on peptide column, A1PI mass balance; assay type: binding; details: 1 ml Eff. II+III, 4° C.; for Mass A1PI per Eluate Fraction, 2% Acetic Acid / Mass A1PI per Eluate Fraction, Flowthrough / Mass A1PI per Eluate Fraction, 1M NaCl: * Below detection limit; for Percent Eluted by Fraction, 1M NaCl / Percent Eluted by Fraction, 2% Acetic Acid / Percent Eluted by Fraction, Flowthrough: A1PI
T1 construct: Human plasma is currently the only approved source of therapeutic AlPI
T1 sequence (P01009 25-418): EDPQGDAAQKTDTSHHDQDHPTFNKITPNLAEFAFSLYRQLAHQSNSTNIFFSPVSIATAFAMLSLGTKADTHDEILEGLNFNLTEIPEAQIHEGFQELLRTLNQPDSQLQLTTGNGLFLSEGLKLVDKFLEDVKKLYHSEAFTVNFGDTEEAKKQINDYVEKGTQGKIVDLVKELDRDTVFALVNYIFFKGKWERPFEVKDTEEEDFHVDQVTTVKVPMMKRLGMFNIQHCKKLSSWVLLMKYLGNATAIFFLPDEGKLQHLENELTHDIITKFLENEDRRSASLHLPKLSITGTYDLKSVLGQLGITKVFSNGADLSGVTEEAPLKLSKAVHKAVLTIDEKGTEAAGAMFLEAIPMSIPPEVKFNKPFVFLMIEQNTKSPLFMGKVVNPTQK
Description: Sequences 1-11 and 15 were assayed with Effluent II+III (Eff. II+III). Eff. II+III is a process intermediate in the Cohn plasma fractionation process. The feed stream contains 20% (by volume) ethanol, 20-25 mg/ml hSA and approximately 1 mg/ml AlPI. The stream also contains other proteins including anti-thrombin III (AT3), immunoglobin G (IgG), immunoglobin A (IgA), apolipoprotein alpha-1 (Apo A-1), transferrin (Trf), haptoglobin (Hpt), and alpha-1 acid glycoprotein (AAG) at concentrations ranging from 0.1-1 mg/ml.
The columns were assayed using the same technique as the hSA+AlPI experiments, allowing for a 10 minute residence time followed by a constant flow rate of 865 μl/min with step elutions of 1M NaCl, 3M NaCl, and 2% acetic acid. All experiments were conducted at 4° C. The mass balances for the injection of 1 ml Eff. […] The AlPI was enriched from 3% of the total protein in the feed to upwards of 50% in the acid eluate.

A1PI [2] = target: T1, A1PI; experiment: A1PI binding on peptide-resin column, injection of 1 mg A1PI in equilibration buffer; details: 1 mg A1PI
Method in brief: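 Peptides synthesized on A-Totda-Toyopearl chelate resin (0.1 mmole/g) packed in 0.4×5 cm columns; 1 mg A1PI injected in equilibration buffer at 4 °C or 20 °C, 865 or 523 μl/min. Flowthrough, 1M/3M NaCl washes and 2% acetic acid eluate quantified by A280 or immunonephelometry as percent of total eluted.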

## R I F L V R: point mutation of VIFLVR, position 1 (RIFLVR)
A1PI [1]; Table 13
  Mass A1PI per Eluate Fraction, 2% Acetic Acid: 0.50 mg
  Mass A1PI per Eluate Fraction, Flowthrough: 0.24 mg
  Percent Eluted by Fraction, 1M NaCl: 0%
  Percent Eluted by Fraction, 2% Acetic Acid: 67%
  Percent Eluted by Fraction, Flowthrough: 33%
A1PI [2]; VIFLVR point mutations, 4° C.
  % of Total A1PI Eluted by Fraction (Based on Absorbance at 280 nm), 1M NaCl: 0%
  % of Total A1PI Eluted by Fraction (Based on Absorbance at 280 nm), 2% Acetic Acid: 100%
  % of Total A1PI Eluted by Fraction (Based on Absorbance at 280 nm), Flowthrough: 0%

## S I F L V R: point mutation of VIFLVR, position 1 (SIFLVR)
A1PI [1]; Table 13
  Mass A1PI per Eluate Fraction, 1M NaCl: 0.04 mg
  Mass A1PI per Eluate Fraction, 2% Acetic Acid: 0.52 mg
  Mass A1PI per Eluate Fraction, Flowthrough: 0.61 mg
  Percent Eluted by Fraction, 1M NaCl: 3%
  Percent Eluted by Fraction, 2% Acetic Acid: 44%
  Percent Eluted by Fraction, Flowthrough: 52%
A1PI [2]; VIFLVR point mutations, 4° C.
  % of Total A1PI Eluted by Fraction (Based on Absorbance at 280 nm), 1M NaCl: 7%
  % of Total A1PI Eluted by Fraction (Based on Absorbance at 280 nm), 2% Acetic Acid: 93%
  % of Total A1PI Eluted by Fraction (Based on Absorbance at 280 nm), Flowthrough: 0%
A1PI [2]; VIFLVR point mutations, 20° C.
  % of Total A1PI Eluted by Fraction (Based on Absorbance at 280 nm), 1M NaCl: 6%
  % of Total A1PI Eluted by Fraction (Based on Absorbance at 280 nm), 2% Acetic Acid: 81%
  % of Total A1PI Eluted by Fraction (Based on Absorbance at 280 nm), Flowthrough: 13%

## V I A L V R: VIWLVR with Trp at position 3 replaced by Ala (VIALVR)
A1PI [1]; Table 11
  Mass A1PI per Eluate Fraction, 1M NaCl: 0.05 mg
  Mass A1PI per Eluate Fraction, 2% Acetic Acid: 0.35 mg
  Mass A1PI per Eluate Fraction, Flowthrough: 0.18 mg
  Percent Eluted by Fraction, 1M NaCl: 8%
  Percent Eluted by Fraction, 2% Acetic Acid: 61%
  Percent Eluted by Fraction, Flowthrough: 31%
A1PI [2]; Trp position mutations, 4° C.
  % of Total A1PI Eluted by Fraction (Based on Absorbance at 280 nm), 1M NaCl: 92%
  % of Total A1PI Eluted by Fraction (Based on Absorbance at 280 nm), 2% Acetic Acid: 8%
  % of Total A1PI Eluted by Fraction (Based on Absorbance at 280 nm), Flowthrough: 0%
A1PI [2]; Trp position mutations, 20° C.
  % of Total A1PI Eluted by Fraction (Based on Absorbance at 280 nm), 1M NaCl: 36%
  % of Total A1PI Eluted by Fraction (Based on Absorbance at 280 nm), 2% Acetic Acid: 53%
  % of Total A1PI Eluted by Fraction (Based on Absorbance at 280 nm), Flowthrough: 10%

## V I L L V R: VIWLVR with Trp at position 3 replaced by Leu (VILLVR)
A1PI [1]; Table 11
  Mass A1PI per Eluate Fraction, 1M NaCl: 0.07 mg
  Mass A1PI per Eluate Fraction, 2% Acetic Acid: 0.54 mg
  Mass A1PI per Eluate Fraction, Flowthrough: 0.42 mg
  Percent Eluted by Fraction, 1M NaCl: 7%
  Percent Eluted by Fraction, 2% Acetic Acid: 52%
  Percent Eluted by Fraction, Flowthrough: 41%
A1PI [2]; Trp position mutations, 4° C.
  % of Total A1PI Eluted by Fraction (Based on Absorbance at 280 nm), 1M NaCl: 7%
  % of Total A1PI Eluted by Fraction (Based on Absorbance at 280 nm), 2% Acetic Acid: 93%
  % of Total A1PI Eluted by Fraction (Based on Absorbance at 280 nm), Flowthrough: 0%

## V I N L V R: VIWLVR with Trp at position 3 replaced by Asn (VINLVR)
A1PI [1]; Table 11
  Mass A1PI per Eluate Fraction, 2% Acetic Acid: 0.53 mg
  Mass A1PI per Eluate Fraction, Flowthrough: 0.44 mg
  Percent Eluted by Fraction, 1M NaCl: 0%
  Percent Eluted by Fraction, 2% Acetic Acid: 55%
  Percent Eluted by Fraction, Flowthrough: 45%
A1PI [2]; Trp position mutations, 4° C.
  % of Total A1PI Eluted by Fraction (Based on Absorbance at 280 nm), 1M NaCl: 8%
  % of Total A1PI Eluted by Fraction (Based on Absorbance at 280 nm), 2% Acetic Acid: 92%
  % of Total A1PI Eluted by Fraction (Based on Absorbance at 280 nm), Flowthrough: 0%
A1PI [2]; Trp position mutations, 20° C.
  % of Total A1PI Eluted by Fraction (Based on Absorbance at 280 nm), 1M NaCl: 7%
  % of Total A1PI Eluted by Fraction (Based on Absorbance at 280 nm), 2% Acetic Acid: 93%
  % of Total A1PI Eluted by Fraction (Based on Absorbance at 280 nm), Flowthrough: 0%

## V I S L V R: VIWLVR with Trp at position 3 replaced by Ser (VISLVR)
A1PI [1]; Table 11
  Mass A1PI per Eluate Fraction, 1M NaCl: 0.14 mg
  Mass A1PI per Eluate Fraction, 2% Acetic Acid: 0.26 mg
  Mass A1PI per Eluate Fraction, Flowthrough: 0.14 mg
  Percent Eluted by Fraction, 1M NaCl: 26%
  Percent Eluted by Fraction, 2% Acetic Acid: 49%
  Percent Eluted by Fraction, Flowthrough: 25%
A1PI [2]; Trp position mutations, 4° C.
  % of Total A1PI Eluted by Fraction (Based on Absorbance at 280 nm), 1M NaCl: 100%
  % of Total A1PI Eluted by Fraction (Based on Absorbance at 280 nm), 2% Acetic Acid: 0%
  % of Total A1PI Eluted by Fraction (Based on Absorbance at 280 nm), Flowthrough: 0%
A1PI [2]; Trp position mutations, 20° C.
  % of Total A1PI Eluted by Fraction (Based on Absorbance at 280 nm), 1M NaCl: 75%
  % of Total A1PI Eluted by Fraction (Based on Absorbance at 280 nm), 2% Acetic Acid: 14%
  % of Total A1PI Eluted by Fraction (Based on Absorbance at 280 nm), Flowthrough: 11%

## V I V L V R: VIWLVR with Trp at position 3 replaced by Val (VIVLVR)
A1PI [1]; Table 11
  Mass A1PI per Eluate Fraction, 1M NaCl: 0.04 mg
  Mass A1PI per Eluate Fraction, 2% Acetic Acid: 0.50 mg
  Mass A1PI per Eluate Fraction, Flowthrough: 0.31 mg
  Percent Eluted by Fraction, 1M NaCl: 4%
  Percent Eluted by Fraction, 2% Acetic Acid: 59%
  Percent Eluted by Fraction, Flowthrough: 37%
A1PI [2]; Trp position mutations, 4° C.
  % of Total A1PI Eluted by Fraction (Based on Absorbance at 280 nm), 1M NaCl: 5%
  % of Total A1PI Eluted by Fraction (Based on Absorbance at 280 nm), 2% Acetic Acid: 95%
  % of Total A1PI Eluted by Fraction (Based on Absorbance at 280 nm), Flowthrough: 0%
